Values of other authors as cited in paper PMC9842050.
Like-named read-outs stand apart in the source and are kept apart here.

What was measured:
[1] = target: CXCR4 (Homo sapiens) (UniProt P61073)
[2] = target: CXCR4 (Homo sapiens) (UniProt P61073); remark: listed apart in the source
[3] = target: GLP-1R (Homo sapiens) (UniProt P43220); assay: radioligand competition binding
[4] = target: GLP-1R (Homo sapiens) (UniProt P43220); assay: radioligand competition binding; remark: listed apart in the source

Chain of GLP-1R (Homo sapiens) (P43220 24-463): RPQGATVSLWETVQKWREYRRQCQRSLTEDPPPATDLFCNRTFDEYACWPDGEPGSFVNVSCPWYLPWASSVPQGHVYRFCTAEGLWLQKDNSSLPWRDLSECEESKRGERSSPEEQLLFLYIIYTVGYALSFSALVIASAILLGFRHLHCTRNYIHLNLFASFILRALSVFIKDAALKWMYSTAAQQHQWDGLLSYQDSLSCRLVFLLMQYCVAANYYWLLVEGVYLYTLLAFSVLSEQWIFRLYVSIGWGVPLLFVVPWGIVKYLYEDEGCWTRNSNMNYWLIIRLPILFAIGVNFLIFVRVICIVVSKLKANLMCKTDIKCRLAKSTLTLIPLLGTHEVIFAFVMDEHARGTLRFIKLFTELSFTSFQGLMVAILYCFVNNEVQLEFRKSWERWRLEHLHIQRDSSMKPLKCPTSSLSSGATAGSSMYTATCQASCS
Chain of CXCR4 (Homo sapiens) (P61073 whole entry): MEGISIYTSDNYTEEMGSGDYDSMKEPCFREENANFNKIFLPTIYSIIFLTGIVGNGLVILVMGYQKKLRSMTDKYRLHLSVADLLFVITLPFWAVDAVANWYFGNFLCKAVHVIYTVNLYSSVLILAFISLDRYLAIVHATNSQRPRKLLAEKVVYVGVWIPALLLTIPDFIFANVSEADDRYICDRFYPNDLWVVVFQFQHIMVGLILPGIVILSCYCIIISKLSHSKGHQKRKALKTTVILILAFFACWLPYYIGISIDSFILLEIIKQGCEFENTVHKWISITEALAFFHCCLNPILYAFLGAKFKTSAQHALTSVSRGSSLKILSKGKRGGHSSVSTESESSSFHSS
Chain of exendin-4 (P26349 48-86): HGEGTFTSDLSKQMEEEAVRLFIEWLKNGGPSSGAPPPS
Chain of SDF-1α (P48061 24-88): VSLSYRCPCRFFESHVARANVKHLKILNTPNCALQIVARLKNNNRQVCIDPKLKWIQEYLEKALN

| Kd [1] | Kd [2] | Substance | Kd [3] | Kd [4] |
| --- | --- | --- | --- | --- |
| 8.4 nM | 1.4 nM | SDF-1α (from UniProt P48061) | – | – |
| – | – | exendin-4 (from UniProt P26349) | 54.3 nM | 37.8 nM |
